Tests used:
[1] = biological target: M3 muscarinic acetylcholine receptor (Homo sapiens, UniProt P20309); assay: 3H-NMS radioligand pseudocompetition binding (allosteric model)
[2] = biological target: T1, M1 muscarinic acetylcholine receptor (Homo sapiens, UniProt P11229); assay: as above
T1 chain: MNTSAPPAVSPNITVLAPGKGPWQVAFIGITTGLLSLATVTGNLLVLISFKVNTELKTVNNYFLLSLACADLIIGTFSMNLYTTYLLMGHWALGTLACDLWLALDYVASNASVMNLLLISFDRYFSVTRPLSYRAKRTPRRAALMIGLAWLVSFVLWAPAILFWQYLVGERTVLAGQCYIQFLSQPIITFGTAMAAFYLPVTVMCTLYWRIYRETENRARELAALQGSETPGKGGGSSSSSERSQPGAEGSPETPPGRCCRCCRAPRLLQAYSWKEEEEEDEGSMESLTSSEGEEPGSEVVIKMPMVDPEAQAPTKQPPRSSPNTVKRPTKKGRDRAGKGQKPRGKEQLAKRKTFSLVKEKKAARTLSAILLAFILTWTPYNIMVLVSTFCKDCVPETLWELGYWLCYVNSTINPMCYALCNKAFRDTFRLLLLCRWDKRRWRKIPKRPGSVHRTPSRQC

Chain of M3 muscarinic acetylcholine receptor (P20309 whole entry): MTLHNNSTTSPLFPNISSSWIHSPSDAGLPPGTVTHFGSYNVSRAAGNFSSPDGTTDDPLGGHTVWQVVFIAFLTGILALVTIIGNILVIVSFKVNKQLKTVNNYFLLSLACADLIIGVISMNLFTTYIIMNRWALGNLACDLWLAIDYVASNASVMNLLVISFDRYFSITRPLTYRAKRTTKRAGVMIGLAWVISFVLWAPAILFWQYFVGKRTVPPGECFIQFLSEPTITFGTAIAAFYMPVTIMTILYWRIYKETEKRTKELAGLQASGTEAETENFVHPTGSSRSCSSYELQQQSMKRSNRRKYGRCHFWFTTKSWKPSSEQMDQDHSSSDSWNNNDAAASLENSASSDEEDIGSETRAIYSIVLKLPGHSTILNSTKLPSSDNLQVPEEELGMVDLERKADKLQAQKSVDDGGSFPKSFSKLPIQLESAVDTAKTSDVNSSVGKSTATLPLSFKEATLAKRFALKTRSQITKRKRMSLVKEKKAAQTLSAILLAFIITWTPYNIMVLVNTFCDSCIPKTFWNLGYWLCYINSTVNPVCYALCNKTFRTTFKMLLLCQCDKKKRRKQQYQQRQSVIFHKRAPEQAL

B1: SLURP-2 (protein)
chain: IWCHQCTGFGGCSHGSRCLRDSTHCVTTATRVLSNTEDLPLVTKMCHIGCPDIPSLGLGPYVSIACCQTSLCNHD
Kd [1]: 0.144 µM | Kd [2]: 0.231 µM

From paper PMC4971505 (2016)
